Measured values taken from patent US20180155451A1 (published 2018).

B1: GpH7-B3 variant P271_13S/GpL16-k0 (Ho Ab) (antibody, human IgG1, kappa)
heavy: not shown
light: DIVMTQSPLSLPVTPGEPASISCQASESLVHSNRNTYLHWYLQKPGQSPQLLIYKVSNRFSGVPDRFSGSGSGTDFTLKISRVEAEDVGVYYCSQNTHVPPTFGQGTKVEIERTVAAPSVFIFPPSDEQLKSGTASVVCLLNNFYPREAKVQWKVDNALQSGNSQESVTEQDSKDSTYSLSSTLTLSKADYEKHKVYACEVTHQGLSSPVTKSFNRGEC
notes: Ho Ab: alteration in both H chains
B2: GpH7-B3 variant P271_20W/GpL16-k0 (Ho Ab) (antibody, human IgG1, kappa)
heavy: not shown
light: B1 light
notes: as for B1
B3: GpH7-B3 variant Q295_02A/GpL16-k0 (Ho Ab) (antibody, human IgG1, kappa)
heavy: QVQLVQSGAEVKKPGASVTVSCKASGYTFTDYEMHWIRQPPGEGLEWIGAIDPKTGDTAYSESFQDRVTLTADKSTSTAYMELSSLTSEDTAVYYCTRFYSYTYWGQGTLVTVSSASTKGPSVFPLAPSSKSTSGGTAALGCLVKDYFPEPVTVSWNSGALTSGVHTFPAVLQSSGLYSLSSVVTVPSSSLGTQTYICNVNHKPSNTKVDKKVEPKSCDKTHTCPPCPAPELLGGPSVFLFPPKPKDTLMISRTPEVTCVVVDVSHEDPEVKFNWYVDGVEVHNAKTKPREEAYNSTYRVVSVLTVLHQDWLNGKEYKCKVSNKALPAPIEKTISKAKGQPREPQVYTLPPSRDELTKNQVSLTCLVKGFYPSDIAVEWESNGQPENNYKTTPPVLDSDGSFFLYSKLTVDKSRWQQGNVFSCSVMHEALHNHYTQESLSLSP
light: B1 light
notes: as for B1
B4: GpH7-B3 variant Q295_03V/GpL16-k0 (Ho Ab) (antibody, human IgG1, kappa)
heavy: not shown
light: B1 light
notes: as for B1
B5: GpH7-B3 variant Q295_04F/GpL16-k0 (Ho Ab) (antibody, human IgG1, kappa)
heavy: not shown
light: B1 light
notes: as for B1
B6: GpH7-B3 variant Q295_05P/GpL16-k0 (Ho Ab) (antibody, human IgG1, kappa)
heavy: not shown
light: B1 light
notes: as for B1
B7: GpH7-B3 variant Q295_07I/GpL16-k0 (Ho Ab) (antibody, human IgG1, kappa)
heavy: not shown
light: B1 light
notes: as for B1
B8: GpH7-B3 variant Q295_13S/GpL16-k0 (Ho Ab) (antibody, human IgG1, kappa)
heavy: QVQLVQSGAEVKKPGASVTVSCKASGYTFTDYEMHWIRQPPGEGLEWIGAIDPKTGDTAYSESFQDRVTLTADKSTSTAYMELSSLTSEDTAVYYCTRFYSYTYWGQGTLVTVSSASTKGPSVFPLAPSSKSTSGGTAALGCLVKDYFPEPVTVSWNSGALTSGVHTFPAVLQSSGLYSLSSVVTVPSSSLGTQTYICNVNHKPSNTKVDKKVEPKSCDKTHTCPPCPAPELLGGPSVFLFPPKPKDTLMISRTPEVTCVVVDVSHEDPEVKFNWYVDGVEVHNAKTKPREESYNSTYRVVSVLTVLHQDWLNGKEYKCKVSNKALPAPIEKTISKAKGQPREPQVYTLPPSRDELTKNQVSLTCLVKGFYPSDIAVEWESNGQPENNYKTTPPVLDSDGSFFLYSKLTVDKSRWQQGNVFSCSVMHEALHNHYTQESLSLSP
light: B1 light
notes: as for B1
B9: GpH7-B3 variant Q295_14T/GpL16-k0 (Ho Ab) (antibody, human IgG1, kappa)
heavy: not shown
light: B1 light
notes: as for B1
B10: GpH7-B3 variant Q295_18N/GpL16-k0 (Ho Ab) (antibody, human IgG1, kappa)
heavy: not shown
light: B1 light
notes: as for B1
B11: GpH7-B3 variant S239_01G/GpL16-k0 (Ho Ab) (antibody, human IgG1, kappa)
heavy: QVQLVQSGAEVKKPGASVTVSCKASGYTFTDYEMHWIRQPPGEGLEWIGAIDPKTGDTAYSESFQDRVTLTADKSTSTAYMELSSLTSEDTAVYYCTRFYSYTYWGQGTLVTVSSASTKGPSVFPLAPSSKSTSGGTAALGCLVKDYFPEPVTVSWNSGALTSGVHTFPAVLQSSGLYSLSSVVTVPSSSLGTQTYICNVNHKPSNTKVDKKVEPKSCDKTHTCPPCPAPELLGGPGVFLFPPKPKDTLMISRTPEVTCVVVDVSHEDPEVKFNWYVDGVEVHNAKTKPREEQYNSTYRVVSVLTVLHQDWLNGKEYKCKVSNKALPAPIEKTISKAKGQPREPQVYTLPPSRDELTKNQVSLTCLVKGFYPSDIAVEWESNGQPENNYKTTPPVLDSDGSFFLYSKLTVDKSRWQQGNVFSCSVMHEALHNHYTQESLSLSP
light: B1 light
notes: as for B1
B12: GpH7-B3 variant S239_09D/GpL16-k0 (Ho Ab) (antibody, human IgG1, kappa)
heavy: not shown
light: B1 light
notes: Ho Ab: alteration in both H chains; also called GpH7-B3-06-09D/GpL16-k0
B13: GpH7-B3 variant S267_01G/GpL16-k0 (Ho Ab) (antibody, human IgG1, kappa)
heavy: not shown
light: B1 light
notes: as for B1
B14: GpH7-B3 variant S267_02A/GpL16-k0 (Ho Ab) (antibody, human IgG1, kappa)
heavy: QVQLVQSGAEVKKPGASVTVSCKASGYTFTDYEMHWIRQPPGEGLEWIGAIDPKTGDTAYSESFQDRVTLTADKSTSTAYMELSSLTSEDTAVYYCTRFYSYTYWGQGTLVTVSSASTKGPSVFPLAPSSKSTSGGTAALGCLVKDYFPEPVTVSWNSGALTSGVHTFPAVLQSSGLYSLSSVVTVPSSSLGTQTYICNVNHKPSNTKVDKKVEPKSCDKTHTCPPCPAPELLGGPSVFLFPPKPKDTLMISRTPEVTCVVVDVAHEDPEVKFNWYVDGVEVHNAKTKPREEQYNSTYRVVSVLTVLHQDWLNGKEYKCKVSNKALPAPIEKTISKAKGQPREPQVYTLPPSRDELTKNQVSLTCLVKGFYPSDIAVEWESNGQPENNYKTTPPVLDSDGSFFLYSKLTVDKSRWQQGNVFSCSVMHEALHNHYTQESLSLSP
light: B1 light
notes: as for B1
B15: GpH7-B3 variant S267_03V/GpL16-k0 (Ho Ab) (antibody, human IgG1, kappa)
heavy: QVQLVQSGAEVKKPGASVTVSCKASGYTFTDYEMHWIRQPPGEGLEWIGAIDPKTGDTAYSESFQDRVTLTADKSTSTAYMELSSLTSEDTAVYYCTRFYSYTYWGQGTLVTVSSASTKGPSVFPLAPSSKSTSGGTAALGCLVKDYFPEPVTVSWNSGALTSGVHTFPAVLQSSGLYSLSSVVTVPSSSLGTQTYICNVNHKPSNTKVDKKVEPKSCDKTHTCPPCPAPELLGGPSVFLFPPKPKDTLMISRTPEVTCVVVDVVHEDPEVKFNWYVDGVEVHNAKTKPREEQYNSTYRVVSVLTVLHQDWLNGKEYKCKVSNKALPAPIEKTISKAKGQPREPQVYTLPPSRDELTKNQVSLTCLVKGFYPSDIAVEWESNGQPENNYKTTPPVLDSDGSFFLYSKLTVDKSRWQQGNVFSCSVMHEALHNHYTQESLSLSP
light: B1 light
notes: as for B1
B16: GpH7-B3 variant S267_09D/GpL16-k0 (Ho Ab) (antibody, human IgG1, kappa)
heavy: not shown
light: B1 light
notes: as for B1
B17: GpH7-B3 variant S298_03V/GpL16-k0 (Ho Ab) (antibody, human IgG1, kappa)
heavy: not shown
light: B1 light
notes: as for B1
B18: GpH7-B3 variant S298_07I/GpL16-k0 (Ho Ab) (antibody, human IgG1, kappa)
heavy: not shown
light: B1 light
notes: as for B1
B19: GpH7-B3 variant S298_08L/GpL16-k0 (Ho Ab) (antibody, human IgG1, kappa)
heavy: not shown
light: B1 light
notes: as for B1
B20: GpH7-B3 variant S298_10E/GpL16-k0 (Ho Ab) (antibody, human IgG1, kappa)
heavy: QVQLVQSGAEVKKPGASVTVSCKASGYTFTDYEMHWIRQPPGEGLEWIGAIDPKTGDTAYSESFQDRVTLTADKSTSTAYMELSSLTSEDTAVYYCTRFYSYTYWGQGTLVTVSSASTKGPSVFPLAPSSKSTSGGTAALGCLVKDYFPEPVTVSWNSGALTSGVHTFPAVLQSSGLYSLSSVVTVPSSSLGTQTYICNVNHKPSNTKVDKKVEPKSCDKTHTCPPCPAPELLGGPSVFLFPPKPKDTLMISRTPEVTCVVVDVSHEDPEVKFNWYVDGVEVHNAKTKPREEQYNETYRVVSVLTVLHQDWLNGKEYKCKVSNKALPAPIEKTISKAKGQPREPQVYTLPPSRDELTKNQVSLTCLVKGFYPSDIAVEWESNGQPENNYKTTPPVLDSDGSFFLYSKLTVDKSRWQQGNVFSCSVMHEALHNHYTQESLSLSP
light: B1 light
notes: as for B1
B21: GpH7-B3 variant S298_14T/GpL16-k0 (Ho Ab) (antibody, human IgG1, kappa)
heavy: not shown
light: B1 light
notes: as for B1
B22: GpH7-B3 variant S298_15Y/GpL16-k0 (Ho Ab) (antibody, human IgG1, kappa)
heavy: not shown
light: B1 light
notes: as for B1
B23: GpH7-B3 variant S298_16H/GpL16-k0 (Ho Ab) (antibody, human IgG1, kappa)
heavy: not shown
light: B1 light
notes: as for B1
B24: GpH7-B3 variant S298_18N/GpL16-k0 (Ho Ab) (antibody, human IgG1, kappa)
heavy: not shown
light: B1 light
notes: as for B1
B25: GpH7-B3 variant S298_19Q/GpL16-k0 (Ho Ab) (antibody, human IgG1, kappa)
heavy: not shown
light: B1 light
notes: as for B1
B26: GpH7-B3 variant S324_02A/GpL16-k0 (Ho Ab) (antibody, human IgG1, kappa)
heavy: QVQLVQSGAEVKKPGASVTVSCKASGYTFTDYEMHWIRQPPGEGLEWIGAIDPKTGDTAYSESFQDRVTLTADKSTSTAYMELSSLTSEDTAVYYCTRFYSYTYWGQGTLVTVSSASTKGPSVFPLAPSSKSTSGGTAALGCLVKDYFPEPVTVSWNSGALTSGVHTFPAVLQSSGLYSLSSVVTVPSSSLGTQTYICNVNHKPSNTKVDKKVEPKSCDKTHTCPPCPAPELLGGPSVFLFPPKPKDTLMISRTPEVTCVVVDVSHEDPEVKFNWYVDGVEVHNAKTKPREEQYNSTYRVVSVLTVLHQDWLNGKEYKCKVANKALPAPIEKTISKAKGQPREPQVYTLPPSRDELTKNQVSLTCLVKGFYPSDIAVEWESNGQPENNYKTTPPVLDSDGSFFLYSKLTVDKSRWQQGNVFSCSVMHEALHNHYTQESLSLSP
light: B1 light
notes: as for B1
B27: GpH7-B3 variant S324_03V/GpL16-k0 (Ho Ab) (antibody, human IgG1, kappa)
heavy: not shown
light: B1 light
notes: as for B1
B28: GpH7-B3 variant S324_08L/GpL16-k0 (Ho Ab) (antibody, human IgG1, kappa)
heavy: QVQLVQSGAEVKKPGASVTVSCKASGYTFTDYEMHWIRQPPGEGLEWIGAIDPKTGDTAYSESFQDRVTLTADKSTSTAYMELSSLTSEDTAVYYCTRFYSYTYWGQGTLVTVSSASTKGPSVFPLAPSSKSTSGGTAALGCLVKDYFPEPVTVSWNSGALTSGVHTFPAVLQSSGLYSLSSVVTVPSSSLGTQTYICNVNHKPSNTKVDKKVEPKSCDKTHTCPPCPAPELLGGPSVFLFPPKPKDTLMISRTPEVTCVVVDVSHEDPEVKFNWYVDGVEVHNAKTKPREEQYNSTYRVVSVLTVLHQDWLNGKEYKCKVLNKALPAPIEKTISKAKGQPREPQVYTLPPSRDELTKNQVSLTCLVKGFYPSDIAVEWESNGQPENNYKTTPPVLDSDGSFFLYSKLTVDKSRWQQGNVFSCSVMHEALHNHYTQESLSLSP
light: B1 light
notes: as for B1
B29: GpH7-B3 variant S324_14T/GpL16-k0 (Ho Ab) (antibody, human IgG1, kappa)
heavy: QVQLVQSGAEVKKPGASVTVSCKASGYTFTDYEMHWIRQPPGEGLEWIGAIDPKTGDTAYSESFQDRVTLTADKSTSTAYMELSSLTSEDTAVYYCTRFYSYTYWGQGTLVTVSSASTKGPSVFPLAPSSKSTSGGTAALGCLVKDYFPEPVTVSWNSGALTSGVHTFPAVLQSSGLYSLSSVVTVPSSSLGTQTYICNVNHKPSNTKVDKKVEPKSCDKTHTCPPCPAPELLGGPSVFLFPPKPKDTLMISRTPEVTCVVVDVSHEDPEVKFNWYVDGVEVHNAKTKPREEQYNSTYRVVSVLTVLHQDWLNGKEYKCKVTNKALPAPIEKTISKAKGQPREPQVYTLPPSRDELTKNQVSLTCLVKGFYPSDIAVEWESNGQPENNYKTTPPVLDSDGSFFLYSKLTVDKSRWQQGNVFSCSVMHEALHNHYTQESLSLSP
light: B1 light
notes: as for B1
B30: GpH7-B3 variant S324_19Q/GpL16-k0 (Ho Ab) (antibody, human IgG1, kappa)
heavy: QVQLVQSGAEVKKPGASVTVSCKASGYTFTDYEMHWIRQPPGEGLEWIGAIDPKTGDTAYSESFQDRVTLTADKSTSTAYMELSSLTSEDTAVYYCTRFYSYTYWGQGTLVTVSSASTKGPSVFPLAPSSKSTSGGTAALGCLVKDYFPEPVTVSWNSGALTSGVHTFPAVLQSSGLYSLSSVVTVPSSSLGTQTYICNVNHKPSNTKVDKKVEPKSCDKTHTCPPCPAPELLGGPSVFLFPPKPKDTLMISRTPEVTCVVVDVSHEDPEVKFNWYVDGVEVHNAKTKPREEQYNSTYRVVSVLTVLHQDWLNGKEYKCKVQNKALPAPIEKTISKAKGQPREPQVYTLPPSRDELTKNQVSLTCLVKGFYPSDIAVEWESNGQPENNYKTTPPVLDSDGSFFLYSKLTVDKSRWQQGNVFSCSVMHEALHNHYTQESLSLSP
light: B1 light
notes: as for B1
B31: GpH7-B3 variant S324_20W/GpL16-k0 (Ho Ab) (antibody, human IgG1, kappa)
heavy: not shown
light: B1 light
notes: as for B1
B32: GpH7-B3 variant S337_01G/GpL16-k0 (Ho Ab) (antibody, human IgG1, kappa)
heavy: not shown
light: B1 light
notes: as for B1
B33: GpH7-B3 variant S337_02A/GpL16-k0 (Ho Ab) (antibody, human IgG1, kappa)
heavy: not shown
light: B1 light
notes: as for B1
B34: GpH7-B3 variant S337_03V/GpL16-k0 (Ho Ab) (antibody, human IgG1, kappa)
heavy: not shown
light: B1 light
notes: as for B1
B35: GpH7-A5/GpH7-B3 variant P271_02A/GpL16-k0 (He Ab) (antibody, human IgG1, kappa)
heavy 1: not shown
heavy 2: not shown
light: B1 light
notes: He Ab: alteration only in the GpH7-B3 chain
B36: GpH7-A5/GpH7-B3 variant A327_09D/GpL16-k0 (He Ab) (antibody, human IgG1, kappa)
heavy 1: not shown
heavy 2: not shown
light: B1 light
notes: as for B35
B37: GpH7-A5/GpH7-B3 variant A330_08L/GpL16-k0 (He Ab) (antibody, human IgG1, kappa)
heavy 1: not shown
heavy 2: not shown
light: B1 light
notes: as for B35
B38: GpH7-A5/GpH7-B3 variant A330_09D/GpL16-k0 (He Ab) (antibody, human IgG1, kappa)
heavy 1: not shown
heavy 2: not shown
light: B1 light
notes: as for B35
B39: GpH7-A5/GpH7-B3 variant A330_14T/GpL16-k0 (He Ab) (antibody, human IgG1, kappa)
heavy 1: not shown
heavy 2: not shown
light: B1 light
notes: as for B35
B40: GpH7-A5/GpH7-B3 variant E269_04F/GpL16-k0 (He Ab) (antibody, human IgG1, kappa)
heavy 1: not shown
heavy 2: not shown
light: B1 light
notes: as for B35
B41: GpH7-A5/GpH7-B3 variant E269_06M/GpL16-k0 (He Ab) (antibody, human IgG1, kappa)
heavy 1: not shown
heavy 2: not shown
light: B1 light
notes: as for B35
B42: GpH7-A5/GpH7-B3 variant E269_08L/GpL16-k0 (He Ab) (antibody, human IgG1, kappa)
heavy 1: not shown
heavy 2: not shown
light: B1 light
notes: as for B35
B43: GpH7-A5/GpH7-B3 variant E269_15Y/GpL16-k0 (He Ab) (antibody, human IgG1, kappa)
heavy 1: not shown
heavy 2: not shown
light: B1 light
notes: as for B35
B44: GpH7-A5/GpH7-B3 variant E333_01G/GpL16-k0 (He Ab) (antibody, human IgG1, kappa)
heavy 1: not shown
heavy 2: not shown
light: B1 light
notes: as for B35

molecular target: T1, FcγRIa extracellular domain with C-terminal His tag (human, UniProt P12314 16-292); assay: SPR Biacore, antibody captured, FcγRIa analyte; vs GpH7-B3/GpL16-k0 = 100
T1 construct: extracellular domain; Expressed in FreeStyle293 cells; analyte in Biacore; also called FcgRI; FcgRIa
T1 sequence (P12314 16-292): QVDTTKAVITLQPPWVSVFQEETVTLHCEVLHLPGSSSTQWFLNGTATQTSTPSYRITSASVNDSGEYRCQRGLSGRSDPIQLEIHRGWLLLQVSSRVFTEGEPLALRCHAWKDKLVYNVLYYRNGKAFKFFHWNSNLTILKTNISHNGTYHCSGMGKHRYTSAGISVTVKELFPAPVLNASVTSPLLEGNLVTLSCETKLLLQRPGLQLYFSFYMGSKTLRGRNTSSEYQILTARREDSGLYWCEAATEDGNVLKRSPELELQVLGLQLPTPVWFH

Going from B1 to B2, the Ho/Con_1a rises from 101 relative (control = 100) to 102 relative (control = 100).

Compared with B3, B4 is lower in Ho/Con_1a: 104 relative (control = 100) for the first, 102 relative (control = 100) for the second.

First: B5
Second: B6
The Ho/Con_1a of the first is lower: 100 relative (control = 100) for the first, 101 relative (control = 100) for the second.

B7 and B8 are the same in Ho/Con_1a: 101 relative (control = 100) for the first, 101 relative (control = 100) for the second.

First: B9
Second: B10
The Ho/Con_1a of the first is higher: 102 relative (control = 100) for the first, 101 relative (control = 100) for the second.

B11 and B12 are the same in Ho/Con_1a: 101 relative (control = 100) for the first, 101 relative (control = 100) for the second.

First: B13
Second: B14
The Ho/Con_1a of the first is lower: 102 relative (control = 100) for the first, 108 relative (control = 100) for the second.

First: B15
Second: B16
The Ho/Con_1a of the first is lower: 102 relative (control = 100) for the first, 106 relative (control = 100) for the second.

Compared with B17, B18 is lower in Ho/Con_1a: 106 relative (control = 100) for the first, 103 relative (control = 100) for the second.

Going from B19 to B20, the Ho/Con_1a rises from 104 relative (control = 100) to 106 relative (control = 100).

Going from B21 to B22, the Ho/Con_1a falls from 106 relative (control = 100) to 103 relative (control = 100).

Compared with B23, B24 is lower in Ho/Con_1a: 107 relative (control = 100) for the first, 104 relative (control = 100) for the second.

Compared with B25, B26 is lower in Ho/Con_1a: 105 relative (control = 100) for the first, 103 relative (control = 100) for the second.

B27 and B28 are the same in Ho/Con_1a: 103 relative (control = 100) for the first, 103 relative (control = 100) for the second.

Compared with B29, B30 is lower in Ho/Con_1a: 112 relative (control = 100) for the first, 111 relative (control = 100) for the second.

Going from B31 to B32, the Ho/Con_1a falls from 112 relative (control = 100) to 102 relative (control = 100).

Compared with B33, B34 is higher in Ho/Con_1a: 103 relative (control = 100) for the first, 105 relative (control = 100) for the second.

molecular target: T1, FcγRIa extracellular domain with …; assay: SPR Biacore, antibody captured, FcγRIa analyte; vs GpH7-A5/GpH7-B3/GpL16-k0 = 100

Compared with B35, B36 is lower in He/Con_1a: 104 relative (control = 100) for the first, 103 relative (control = 100) for the second.

Going from B37 to B38, the He/Con_1a rises from 107 relative (control = 100) to 109 relative (control = 100).

First: B39
Second: B40
The He/Con_1a of the first is higher: 105 relative (control = 100) for the first, 103 relative (control = 100) for the second.

B41 and B42 are the same in He/Con_1a: 104 relative (control = 100) for the first, 104 relative (control = 100) for the second.

Going from B43 to B44, the He/Con_1a falls from 106 relative (control = 100) to 103 relative (control = 100).
